Assay results reported in patent publication US20120316071A1 (published 2012).
Each block holds one binder with its values, some of them ahead of it.

Columns and labels:
[1] = molecular target: T1, rHuman EGF R/Fc Chimera, CF (R&D Systems Cat#344-ER) (human, UniProt P00533 25-645); test: ECL Multispot (MSD) assay, antigen spotted on plate, 10 nM Fab; blank spot 338
T1 construct: Bought recombinant Fc chimera; also called epidermal growth factor receptor; Fc part of the bought chimera not given

[2] = molecular target: T2, rHuman HGF R/c-MET/Fc Chimera, CF (R&D Systems Cat#358-MT/CF) (human, UniProt P08581 25-932); test: as above
T2 construct: Bought recombinant Fc chimera; also called HGF R/Fc; hepatocyte growth factor receptor; Fc part of the bought chimera not given
T2 sequence (P08581 25-932, change not shown): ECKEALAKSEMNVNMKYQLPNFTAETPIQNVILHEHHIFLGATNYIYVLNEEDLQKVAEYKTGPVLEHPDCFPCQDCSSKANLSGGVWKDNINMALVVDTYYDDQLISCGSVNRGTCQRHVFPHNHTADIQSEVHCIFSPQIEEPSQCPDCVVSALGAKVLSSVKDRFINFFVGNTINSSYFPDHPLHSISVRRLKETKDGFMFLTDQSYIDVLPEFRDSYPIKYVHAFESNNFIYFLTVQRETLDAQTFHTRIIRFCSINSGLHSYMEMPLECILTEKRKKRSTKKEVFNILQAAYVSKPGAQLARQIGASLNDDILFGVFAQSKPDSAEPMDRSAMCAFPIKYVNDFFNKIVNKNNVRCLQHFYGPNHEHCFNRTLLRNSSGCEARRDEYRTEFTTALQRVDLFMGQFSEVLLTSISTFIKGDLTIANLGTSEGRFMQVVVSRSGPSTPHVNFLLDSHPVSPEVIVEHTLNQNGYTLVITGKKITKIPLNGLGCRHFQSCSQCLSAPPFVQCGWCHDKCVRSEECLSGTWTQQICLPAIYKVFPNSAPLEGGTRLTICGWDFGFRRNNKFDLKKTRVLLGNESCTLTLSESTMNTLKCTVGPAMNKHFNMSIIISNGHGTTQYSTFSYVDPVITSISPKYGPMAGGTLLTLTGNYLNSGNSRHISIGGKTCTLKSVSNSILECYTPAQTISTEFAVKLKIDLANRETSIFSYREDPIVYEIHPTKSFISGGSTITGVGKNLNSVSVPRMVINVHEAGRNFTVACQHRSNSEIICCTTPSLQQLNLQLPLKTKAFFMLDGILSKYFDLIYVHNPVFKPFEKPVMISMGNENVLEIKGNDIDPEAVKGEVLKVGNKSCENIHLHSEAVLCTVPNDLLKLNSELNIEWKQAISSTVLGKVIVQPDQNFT

[3] = molecular target: T3, rHuman IGF-1 sR, CF (R&D Systems Cat#391-GR) (human, UniProt P08069 31-932); test: as above
T3 construct: Bought soluble receptor; also called insulin-like growth factor-1 soluble receptor

[4] = molecular target: T4, rHuman P-Cadherin/Fc Chimera, CF (R&D Systems Cat#861-PC) (human, UniProt P22223 108-654); test: as above
T4 construct: Bought recombinant Fc chimera; Fc part of the bought chimera not given

[5] = molecular target: T5, Recombinant Human DLL4 (R&D Systems Cat#1506-D4/CF) (human, UniProt Q9NR61 27-524); test: as above
T5 construct: Bought recombinant protein; also called delta-like protein 4; rHuman DLL4

[6] = molecular target: T6, rHuman ErbB2/Fc Chimera, CF (R&D Systems Cat#1129-ER) (human, UniProt P04626 23-652); test: as above
T6 construct: Bought recombinant Fc chimera; also called human epidermal growth factor 2 receptor; Fc part of the bought chimera not given

[7] = molecular target: T1, rHuman EGF R/Fc Chimera, CF (R&D …); test: ECL Multispot (MSD) assay, antigen spotted on plate, 10 nM Fab; blank spot 407
[8] = molecular target: T2, rHuman HGF R/c-MET/Fc Chimera, CF (R&D …); test: as above
[9] = molecular target: T3, rHuman IGF-1 sR, CF (R&D Systems …); test: as above
[10] = molecular target: T4, rHuman P-Cadherin/Fc Chimera, CF (R&D …); test: as above
[11] = molecular target: T5, Recombinant Human DLL4 (R&D Systems …); test: as above
[12] = molecular target: T6, rHuman ErbB2/Fc Chimera, CF (R&D …); test: as above
[13] = molecular target: T1, rHuman EGF R/Fc Chimera, CF (R&D …); test: ECL Multispot (MSD) assay, antigen spotted on plate, 10 nM Fab; blank spot 322
[14] = molecular target: T2, rHuman HGF R/c-MET/Fc Chimera, CF (R&D …); test: as above
[15] = molecular target: T7, rHuman Notch-1/Fc Chimera, CF (R&D Systems Cat#3647-TK) (human, UniProt P46531 19-526); test: as above
T7 construct: Bought recombinant Fc chimera; Fc part of the bought chimera not given

[16] = molecular target: T8, rHuman CD44/Fc Chimera, CF (R&D Systems Cat#3660-CD) (human, UniProt P16070 21-220); test: as above
T8 construct: Bought recombinant Fc chimera; Fc part of the bought chimera not given

[17] = molecular target: T3, rHuman IGF-1 sR, CF (R&D Systems …); test: as above
[18] = molecular target: T4, rHuman P-Cadherin/Fc Chimera, CF (R&D …); test: as above
[19] = molecular target: T9, rHuman Erythropoietin R/Fc Chimera, CF (R&D Systems Cat#963-ER) (human, UniProt P19235 25-250); test: as above
T9 construct: Bought recombinant Fc chimera; also called EPO R; EPO R/Fc; Fc part of the bought chimera not given
T9 sequence (looked up): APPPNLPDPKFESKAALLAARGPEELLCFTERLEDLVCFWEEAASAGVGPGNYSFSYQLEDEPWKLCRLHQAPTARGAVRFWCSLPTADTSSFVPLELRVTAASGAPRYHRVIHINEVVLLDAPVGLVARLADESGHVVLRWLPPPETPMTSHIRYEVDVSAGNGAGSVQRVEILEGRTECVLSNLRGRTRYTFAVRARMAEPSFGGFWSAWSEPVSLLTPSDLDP

[20] = molecular target: T5, Recombinant Human DLL4 (R&D Systems …); test: as above
[21] = molecular target: T6, rHuman ErbB2/Fc Chimera, CF (R&D …); test: as above
[22] = molecular target: T1, rHuman EGF R/Fc Chimera, CF (R&D …); test: ECL Multispot (MSD) assay, antigen spotted on plate, 10 nM Fab; blank spot 367
[23] = molecular target: T2, rHuman HGF R/c-MET/Fc Chimera, CF (R&D …); test: as above
[24] = molecular target: T7, rHuman Notch-1/Fc Chimera, CF (R&D …); test: as above
[25] = molecular target: T8, rHuman CD44/Fc Chimera, CF (R&D Systems …); test: as above
[26] = molecular target: T3, rHuman IGF-1 sR, CF (R&D Systems …); test: as above
[27] = molecular target: T4, rHuman P-Cadherin/Fc Chimera, CF (R&D …); test: as above
[28] = molecular target: T9, rHuman Erythropoietin R/Fc Chimera, CF …; test: as above
[29] = molecular target: T5, Recombinant Human DLL4 (R&D Systems …); test: as above
[30] = molecular target: T6, rHuman ErbB2/Fc Chimera, CF (R&D …); test: as above
[31] = molecular target: T1, rHuman EGF R/Fc Chimera, CF (R&D …); test: ECL Multispot (MSD) assay, antigen spotted on plate, 10 nM Fab; blank spot 151
[32] = molecular target: T2, rHuman HGF R/c-MET/Fc Chimera, CF (R&D …); test: as above
[33] = molecular target: T7, rHuman Notch-1/Fc Chimera, CF (R&D …); test: as above
[34] = molecular target: T8, rHuman CD44/Fc Chimera, CF (R&D Systems …); test: as above
[35] = molecular target: T3, rHuman IGF-1 sR, CF (R&D Systems …); test: as above
[36] = molecular target: T4, rHuman P-Cadherin/Fc Chimera, CF (R&D …); test: as above
[37] = molecular target: T9, rHuman Erythropoietin R/Fc Chimera, CF …; test: as above
[38] = molecular target: T5, Recombinant Human DLL4 (R&D Systems …); test: as above
[39] = molecular target: T6, rHuman ErbB2/Fc Chimera, CF (R&D …); test: as above

ECL signal [1]: 425
ECL signal [2]: 332
ECL signal [3]: 468
ECL signal [4]: 399
ECL signal [5]: 149000
ECL signal [6]: 379
ECL signal [7]: 329
ECL signal [8]: 237
ECL signal [9]: 357
ECL signal [10]: 277
ECL signal [11]: 126000
ECL signal [12]: 292
B1: Fab VH1-46_IGHD6-6*01_IGHJ1*01 S102A/S103P/S104F/H111F & L6_IGKJ1*01 (Fab, V domains shown)
VH: QVQLVQSGAEVKKPGASVKVSCKASGYTFTSYYMHWVRQAPGQGLEWMGIINPSGGSTSYAQKFQGRVTMTRDTSTSTVYMELSSLRSEDTAVYYCAREEYAPFSAEYFQFWGQGTLVTVSS
VL: not shown
notes: Fab expressed in E. coli: VH joined to CH1 from Plasmid A (with His6 and Flag tags), VL joined to kappa CL from Plasmid C; also called APFF; H:APFF & L:wt

ECL signal [13]: 435
ECL signal [14]: 392
ECL signal [15]: 377
ECL signal [16]: 335
ECL signal [17]: 395
ECL signal [18]: 310
ECL signal [19]: 393
ECL signal [20]: 139000
ECL signal [21]: 372
B2: Fab VH1-46_IGHD6-6*01_IGHJ1*01 S102A/S103P/S104F/H111F S84R & L6_IGKJ1*01 (Fab, V domains shown)
VH: QVQLVQSGAEVKKPGASVKVSCKASGYTFTSYYMHWVRQAPGQGLEWMGIINPSGGSTSYAQKFQGRVTMTRDTSTSTVYMELRSLRSEDTAVYYCAREEYAPFSAEYFQFWGQGTLVTVSS
VL: not shown
notes: Fab expressed in E. coli: VH joined to CH1 from Plasmid A (with His6 and Flag tags), VL joined to kappa CL from Plasmid C; also called APFF S84R

ECL signal [22]: 301
ECL signal [23]: 317
ECL signal [24]: 400
ECL signal [25]: 386
ECL signal [26]: 405
ECL signal [27]: 517
ECL signal [28]: 528
ECL signal [29]: 164000
ECL signal [30]: 354
B3: Fab VH1-46_IGHD6-6*01_IGHJ1*01 S102A/S103P/S104F/H111F S84K & L6_IGKJ1*01 (Fab, V domains shown)
VH: QVQLVQSGAEVKKPGASVKVSCKASGYTFTSYYMHWVRQAPGQGLEWMGIINPSGGSTSYAQKFQGRVTMTRDTSTSTVYMELKSLRSEDTAVYYCAREEYAPFSAEYFQFWGQGTLVTVSS
VL: not shown
notes: Fab expressed in E. coli: VH joined to CH1 from Plasmid A (with His6 and Flag tags), VL joined to kappa CL from Plasmid C; also called APFF S84K

ECL signal [31]: 293
ECL signal [32]: 274
ECL signal [33]: 372
ECL signal [34]: 352
ECL signal [35]: 281
ECL signal [36]: 180
ECL signal [37]: 328
ECL signal [38]: 163000
ECL signal [39]: 297
B4: Fab VH1-46_IGHD6-6*01_IGHJ1*01 S102A/S103P/S104F/H111F S84T & L6_IGKJ1*01 (Fab, V domains shown)
VH: QVQLVQSGAEVKKPGASVKVSCKASGYTFTSYYMHWVRQAPGQGLEWMGIINPSGGSTSYAQKFQGRVTMTRDTSTSTVYMELTSLRSEDTAVYYCAREEYAPFSAEYFQFWGQGTLVTVSS
VL: not shown
notes: Fab expressed in E. coli: VH joined to CH1 from Plasmid A (with His6 and Flag tags), VL joined to kappa CL from Plasmid C; also called APFF S84T
